For the assay, the target named is Kss1-7m3-GBD (Kss1-7m3 fused to the Gal4 DNA-binding domain) (S. cerevisiae) (UniProt P14681). The assay can be described thus: two-hybrid.

Among the data in article PMC2172336 are fold above background (two-hybrid reporter) values, retold here.

Chain of Kss1-7m3-GBD (Kss1-7m3 fused to the Gal4 DNA-binding domain) (S. cerevisiae) (P14681 whole entry, the tested form may be a part): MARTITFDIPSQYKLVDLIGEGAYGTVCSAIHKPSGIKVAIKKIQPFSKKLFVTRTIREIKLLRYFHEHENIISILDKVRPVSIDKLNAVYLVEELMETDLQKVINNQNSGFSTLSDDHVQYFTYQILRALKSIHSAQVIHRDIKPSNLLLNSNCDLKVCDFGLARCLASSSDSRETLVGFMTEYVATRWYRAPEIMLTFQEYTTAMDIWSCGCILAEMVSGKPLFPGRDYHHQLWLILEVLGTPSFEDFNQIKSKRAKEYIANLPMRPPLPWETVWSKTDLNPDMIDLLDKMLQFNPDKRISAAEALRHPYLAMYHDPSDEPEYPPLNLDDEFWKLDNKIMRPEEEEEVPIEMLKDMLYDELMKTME

B1: Ste12-GAD (Ste12 fused to the Gal4 transcriptional activation domain) (natural protein)
chain: MKVQITNSRTEEILKVQANNENDEVSKATPGEVEESLRLIGDLKFFLATAPVNWQENQIIRRYYLNSGQGFVSCVFWNNLYYITGTDIVKCCLYRMQKFGREVVQKKKFEEGIFSDLRNLKCGIDATLEQPKSEFLSFLFRNMCLKTQKKQKVFFWFSVAHDKLFADALERDLKRESLNQPSTTKPVNEPALSFSYDSSSDKPLYDQLLQHLDSRRPSSTTKSDNSPPKLESENFKDNELVTVTNQPLLGVGLMDDDAPESPSQINDFIPQKLIIEPNTLELNGLTEETPHDLPKNTAKGRDEEDFPLDYFPVSVEYPTEENAFDPFPPQAFTPAAPSMPISYDNVNERDSMPVNSLLNRYPYQLSVAPTFPVPPSSSRQHFMTNRDFYSSNNNKEKLVSPSDPTSYMKYDEPVMDFDESRPNENCTNAKSHNSGQQTKQHQLYSNNFQQSYPNGMVPGYYPKMPYNPMGGDPLLDQAFYGADDFFFPPEGCDNNMLYPQTATSWNVLPPQAMQPAPTYVGRPYTPNYRSTPGSAMFPYMQSSNSMQWNTAVSPYSSRAPSTTAKNYPPSTFYSQNINQYPRRRTVGMKSSQGNVPTGNKQSVGKSAKISKPLHIKTSAYQKQYKINLETKARPSAGDEDSAHPDKNKEISMPTPDSNTLVVQSEEGGAHSLEVDTNRRSDKNLPDAT
On to B1, for which the fold above background (two-hybrid reporter) came out at 6 fold.
